Data published in patent publication US20180044416A1.

Each substance was assayed against human FcRn with human beta2M on MDCK II clone 15 cells (human) (UniProt P55899) (assay: cell-based or functional assay).

Substance | Blockade of IgG intracellular uptake EC50 [µg/mL] | Blockade of IgG recycling EC50 [µg/mL] | Blockade of IgG recycling, maximal inhibition [%]
IgG4 IgM tail-piece, V308P (Fc fusion) | 0.51 | 0.42 | –
IgG1 IgM tail-piece, T307A (Fc fusion) | 0.54 | 0.35 | –
IgG1 IgM tail-piece, V308F (Fc fusion) | 0.12 | 0.073 | –

Now from value to substance:

Blockade of IgG intracellular uptake EC50 [µg/mL] | Blockade of IgG recycling EC50 [µg/mL] | Blockade of IgG recycling, maximal inhibition [%] | Substance
0.42 | 0.56 | – | IgG4 IgM tail-piece, V308F (Fc fusion)
0.34 | 0.55 | – | IgG1 IgM tail-piece, V308P (Fc fusion)
0.5 | – | – | IgG4 IgM tail-piece, T307A (Fc fusion)
– | – | 45 | IgG1 IgM tail-piece, H310L (Fc fusion)
